The target in this test is T1, Staphylococcal enterotoxin B (Staphylococcus aureus, strain , UniProt P01552).
T1 construct: source: bought: Toxin technologies
Briefly: SPR. The following applies: both partners purified.

Numbering of substitutions follows the chain as printed. Numbers in names are those of the source.

A word on the Kd: it is the free concentration of one partner at which half of the binding sites on the other are occupied at equilibrium, for simple one-to-one binding.

T1 sequence (P01552 28-266): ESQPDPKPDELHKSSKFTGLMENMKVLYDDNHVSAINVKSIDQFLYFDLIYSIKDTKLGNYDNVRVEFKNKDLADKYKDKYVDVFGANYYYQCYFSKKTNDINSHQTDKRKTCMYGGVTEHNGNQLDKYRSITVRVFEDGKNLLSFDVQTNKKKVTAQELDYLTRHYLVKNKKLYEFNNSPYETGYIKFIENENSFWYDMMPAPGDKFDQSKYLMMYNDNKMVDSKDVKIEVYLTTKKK

B1: sdAb A3, anti-Staphylococcal Enterotoxin B single domain antibody (VHH)
VHH: EVQLVESGGGLVQAGDSLRLSCTASGRTFSRAVMGWFRQAPGKEREFVAAISAAPGTAYYAFYADSVRGRFSISADSAKNTVYLQMNSLKPEDTAVYYCAADLKMQVAAYMNQRSVDYWGQGTQVTVSS
notes: also called wild type sdAb A3
Regarding B1, the affinity, expressed as Kd, was 0.23 nM.

B2: sdAb A3 Construct 4 (Q3C Y118C) (VHH)
VHH: B1 VHH with Q3C, Y118C
notes: Keeps C22/C99
As to B2, the Kd was 0.06 nM.

B3: sdAb A3 Construct 1 (A49C I73C) (VHH)
VHH: B1 VHH with A49C, I73C
notes: Keeps C22/C99
In the case of B3, the Kd amounted to 0.66 nM.

B4: sdAb A3 Construct 2 (A50C A108C) (VHH)
VHH: B1 VHH with A50C, A108C
notes: Keeps C22/C99
For the molecule B4, the affinity, expressed as Kd, was 0.06 nM.

B5: sdAb A3 Construct 3 (V33C M105C) (VHH)
VHH: B1 VHH with V33C, M105C
notes: Keeps C22/C99
B5 had a Kd of 0.21 nM.

The values are drawn from publication PMC4272287 (PLoS ONE, 2014).
